# From publication PMC13036491, “RNA binding protein Musashi1 interacts with the viral genomic RNA and restricts SARS-CoV-2 infection by repressing translation”
# B1: M1 mutant RNA (ssRNA)
# RNA: GGGUAGCACAAGCCGAUGCCGUUAA
# B2: M2 mutant RNA (ssRNA)
# RNA: GGGAUUUUAGCCGUGCUAUCCCCA
# Biological target: GST-Msi1 (Homo sapiens, UniProt O43347 1-362)
# Assay: EMSA
# Conditions: protein: recombinant; tags: N-terminal GST (pGEX 5X-2); label: fluorescein-12-UTP
# Chain of GST-Msi1 (O43347 whole entry): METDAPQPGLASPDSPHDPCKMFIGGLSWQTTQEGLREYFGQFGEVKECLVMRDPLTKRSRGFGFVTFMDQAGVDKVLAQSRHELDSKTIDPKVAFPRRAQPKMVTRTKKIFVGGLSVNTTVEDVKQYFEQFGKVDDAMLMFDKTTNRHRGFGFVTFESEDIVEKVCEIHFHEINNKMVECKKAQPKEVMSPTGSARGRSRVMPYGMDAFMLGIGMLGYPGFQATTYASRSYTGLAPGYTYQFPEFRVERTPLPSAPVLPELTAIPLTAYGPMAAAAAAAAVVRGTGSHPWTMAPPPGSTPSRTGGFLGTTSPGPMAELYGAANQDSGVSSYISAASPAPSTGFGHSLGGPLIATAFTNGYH
row,Binder,binding result
1,B1,no binding
2,B2,no binding
